Values quoted from earlier work as cited in publication PMC3894449.
pKd: −log10 of the molar value.

Assays:
[1] = biological target: IL-15Ralpha (Homo sapiens) (UniProt Q13261)
[2] = biological target: IL-2Ralpha (Homo sapiens) (UniProt P01589)
Sequence of UniProt P01589 (P01589 22-240): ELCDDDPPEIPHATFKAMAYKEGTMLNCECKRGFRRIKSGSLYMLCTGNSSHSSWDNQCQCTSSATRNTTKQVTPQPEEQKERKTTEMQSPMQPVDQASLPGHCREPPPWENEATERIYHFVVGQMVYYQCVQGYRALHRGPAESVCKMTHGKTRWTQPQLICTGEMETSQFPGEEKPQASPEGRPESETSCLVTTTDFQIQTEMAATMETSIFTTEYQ

Sequence of UniProt Q13261 (Q13261 31-205): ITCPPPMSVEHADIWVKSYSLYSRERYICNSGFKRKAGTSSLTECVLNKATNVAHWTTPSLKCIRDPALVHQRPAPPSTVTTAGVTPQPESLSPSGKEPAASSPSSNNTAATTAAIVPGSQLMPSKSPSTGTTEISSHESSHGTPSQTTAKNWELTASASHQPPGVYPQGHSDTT

| pKd [1] | pKd [2] | Substance |
| --- | --- | --- |
| 10.30 |  | IL-15 (from UniProt P40933) |
|  | 7.70 | IL-2 (from UniProt P60568) |
